Changes are numbered by the printed parent chain.
Assays:
Test in all cases: mass photometry; Refeyn OneMP; purified complexes diluted in 20 mM MES pH 6.5, 150 mM NaCl to around 25 nM
Conditions in all cases: both partners purified
[1] = target: T1, CHSY3^H394A, secreted construct aa157-aa882 (human, UniProt Q70JA7 157-882, H394A)
T1 construct: CHSY3, human, UniProt Q70JA7, residues 157-882, mutation in the N-terminal GT domain; source: Freestyle 293-F cells, co-transfected with CHPF, secreted; purified by the same protocol as the wild-type complexes; not shown: SUMO, N-terminal, cleaved; His6, N-terminal, cleaved
T1 sequence (looked up): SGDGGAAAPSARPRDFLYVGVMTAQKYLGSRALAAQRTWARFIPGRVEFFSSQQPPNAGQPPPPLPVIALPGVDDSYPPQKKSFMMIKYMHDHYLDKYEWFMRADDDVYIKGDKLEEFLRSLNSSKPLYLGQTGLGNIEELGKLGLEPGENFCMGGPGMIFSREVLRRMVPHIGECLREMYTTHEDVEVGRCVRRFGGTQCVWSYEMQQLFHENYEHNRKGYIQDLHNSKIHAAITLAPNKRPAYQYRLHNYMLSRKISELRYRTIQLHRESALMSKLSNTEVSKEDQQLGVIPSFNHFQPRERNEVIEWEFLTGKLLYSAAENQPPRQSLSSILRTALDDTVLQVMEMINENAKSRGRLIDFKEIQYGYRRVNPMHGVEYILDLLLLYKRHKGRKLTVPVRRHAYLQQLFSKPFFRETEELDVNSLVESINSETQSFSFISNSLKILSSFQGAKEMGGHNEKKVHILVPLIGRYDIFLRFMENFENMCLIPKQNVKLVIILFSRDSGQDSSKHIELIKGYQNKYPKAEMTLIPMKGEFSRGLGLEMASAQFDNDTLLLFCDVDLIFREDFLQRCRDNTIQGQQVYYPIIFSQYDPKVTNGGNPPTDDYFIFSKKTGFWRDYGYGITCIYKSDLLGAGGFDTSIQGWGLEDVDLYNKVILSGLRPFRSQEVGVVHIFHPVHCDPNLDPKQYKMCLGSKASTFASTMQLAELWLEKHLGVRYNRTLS

[2] = target: T2, CHSY3^H831A, secreted construct aa157-aa882 (human, UniProt Q70JA7 157-882, H831A)
T2 construct: CHSY3, human, UniProt Q70JA7, residues 157-882, mutation in the C-terminal GT domain; source: Freestyle 293-F cells, co-transfected with CHPF, secreted; purified by the same protocol as the wild-type complexes; not shown: SUMO, N-terminal, cleaved; His6, N-terminal, cleaved
T2 sequence (looked up): T1 sequence (looked up) with A238H, H675A

[3] = target: T3, Chondroitin Sulfate Synthase-3 (CHSY3), secreted N-terminally truncated construct aa157-aa882 (human, UniProt Q70JA7 157-882)
T3 construct: CHSY3, human, UniProt Q70JA7, residues 157-882 (membrane-spanning helix removed); Construct in pHR-CMV-TetO2 with an N-terminal chicken RPTP sigma signal peptide, SUMO, 6x His and a 3C site; no cleavage site before the C-terminal Avi tag; source: Freestyle 293-F cells, co-transfected, secreted; purified from the supernatant (HisTrap, 3C protease, second HisTrap); not shown: SUMO, N-terminal, …
T3 sequence (looked up): T1 sequence (looked up) with A238H

Measured: binding result

B1: Chondroitin Polymerizing Factor (CHPF), secreted N-terminally truncated construct aa81-aa775 (domain or fragment, human, UniProt Q8IZ52 81-775, looked up)
chain: GENWEPRVLPYHPAQPGQAAKKAVRTRYISTELGIRQRLLVAVLTSQTTLPTLGVAVNRTLGHRLERVVFLTGARGRRAPPGMAVVTLGEERPIGHLHLALRHLLEQHGDDFDWFFLVPDTTYTEAHGLARLTGHLSLASAAHLYLGRPQDFIGGEPTPGRYCHGGFGVLLSRMLLQQLRPHLEGCRNDIVSARPDEWLGRCILDATGVGCTGDHEGVHYSHLELSPGEPVQEGDPHFRSALTAHPVRDPVHMYQLHKAFARAELERTYQEIQELQWEIQNTSHLAVDGDQAAAWPVGIPAPSRPASRFEVLRWDYFTEQHAFSCADGSPRCPLRGADRADVADVLGTALEELNRRYHPALRLQKQQLVNGYRRFDPARGMEYTLDLQLEALTPQGGRRPLTRRVQLLRPLSRVEILPVPYVTEASRLTVLLPLAAAERDLAPGFLEAFATAALEPGDAAAALTLLLLYEPRQAQRVAHADVFAPVKAHVAELERRFPGARVPWLSVQTAAPSPLRLMDLLSKKHPLDTLFLLAGPDTVLTPDFLNRCRMHAISGWQAFFPMHFQAFHPAVAPPQGPGPPELGRDTGRFDRQAASEACFYNSDYVAARGRLAAASEQEEELLESLDVYELFLHFSSLHVLRAVEPALLQRYRAQTCSARLSEDLYHRCLQSVLEGLGSRTQLAMLLFEQEQGNST
notes: CHPF, human, UniProt Q8IZ52, residues 81-775 (membrane-spanning helix removed); Construct in pHR-CMV-TetO2 with an N-terminal chicken RPTP sigma signal peptide, SUMO, 6x His and a 3C site; a second 3C site stands before the C-terminal twin streptavidin tag; also called Chondroitin sulfate synthase 2; source: Freestyle 293-F cells, co-transfected, secreted; purified from the supernatant (HisTrap, …)
binds: [1] | [2] | [3]

— PMC12748766, “Structural basis for human chondroitin sulfate chain polymerization” (Nature Communications, 2025)
